From PMC11040147 come the findings set out here.

Like-named read-outs stand apart in the source and are kept apart here.

What all share (assay): EMSA
(In EMSA bound probe runs differently from free probe, usually more slowly.)

The target in data set [1] is T1, SF3B4 (human? (HeLa cDNA), UniProt Q15427 1-424).
Data set [2] concerns the target T1, SF3B4. The source holds these as a separate data set.
Data set [3] deals with T1, SF3B4. The source holds these as a separate data set.

T1 sequence (Q15427 whole entry): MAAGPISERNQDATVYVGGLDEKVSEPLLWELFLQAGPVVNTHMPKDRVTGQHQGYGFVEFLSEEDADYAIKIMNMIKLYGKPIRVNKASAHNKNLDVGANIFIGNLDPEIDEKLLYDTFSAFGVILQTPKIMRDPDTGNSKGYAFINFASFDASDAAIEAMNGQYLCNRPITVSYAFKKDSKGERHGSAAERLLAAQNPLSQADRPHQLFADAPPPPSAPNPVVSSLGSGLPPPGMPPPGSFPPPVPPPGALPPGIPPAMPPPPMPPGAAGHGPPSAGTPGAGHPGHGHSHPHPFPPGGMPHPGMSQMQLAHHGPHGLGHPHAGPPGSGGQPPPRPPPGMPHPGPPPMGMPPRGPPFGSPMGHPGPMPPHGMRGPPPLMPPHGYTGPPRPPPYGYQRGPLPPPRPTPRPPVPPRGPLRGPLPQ

For the molecule GGGAGGUGGGAGCCGAGGGUGGG (structured_RNA) [G4-INPPL1], in the data set with SF3B4 [1], the binding result is listed as “binds”.
As to AGAGUGAAGUCUGAAGCGCUGAG (ssRNA) [PPP6R2-mut], in the data set with SF3B4 [2], the binding result is on record as “no binding”.
In the case of GGTTAGGGTTAGGGTTAGGGTTAGGGTTAG (structured_DNA) [hTelo], in the data set with SF3B4 [3], the binding result is listed as “binds”.
